Measurements taken from US20220411498A1 (JACOBIO PHARMACEUTICALS, published 2022).

B1: 216 hIgG2 (antibody, V domains shown)
VH: EVQLVESGGGLVKPGGSLKLPCAASGFTFSDYGMHWVRQAPEKGLEWVAYISSGSSIIYYADTVKGRFTISRDNAKNTLFLQMTSLRSEDTAMYYCARDLYYDHVLDYWGQGTTLTVAS
VL: DIQMTQSPSSLSASLGERVSLTCRASQEISGYLIWLQQKPDGTIKRLIYAASTLDSGVPKRFSGNRSGSDYSLTISSLESEDFADYYCLQYASYPRTFGGGTKLEIKR
notes: Chimeric antibody: mouse Fv fused to the human IgG2 constant region; also called chimeric antibody 216
B2: 217 hIgG2 (antibody, V domains shown)
VH: EVQLVESGGGLVKPGGSLKLSCAASGFTFSDYGMHWVRQAPEKGLEWVAYISSGSSVIYYVDTVKGRFTISRDNAKNTLFLQMTSLRSEDTAMYYCARDLYYDHVLDSWGQGTTLTVSS
VL: DIQMTQSPSSLSASLGERVSLTCRASQEIGGYLSWLQQKPDGTIKRLIYAASTLDSGVPKRFSGSRSGSDYSLTISSLESEDFADYYCLQYASYPRTFGGGTKLEIKR
notes: Chimeric antibody: mouse Fv fused to the human IgG2 constant region
B3: 219 hIgG2 (antibody, V domains shown)
VH: EVQLVESGGGLVKPGGSLKLSCAASGFTFSDYGMHWVRQAPEKGLEWVAYISSGSSIRYYADTVKGRFTISRDNAKNTLFLQMTSLRSEDTAIYYCARDLYYDHVLDYWGQGTTLTVSS
VL: DIQMTQSPSSLSASLGERVSLTCRASQEVSGYLNWLQQKPDGTIKRLIYAASTLDSGVPKRFSGSRSGSDYSLTISSLESEDFADYYCLQYASYPRTFGGGTKVEIKR
notes: Chimeric antibody: mouse Fv fused to the human IgG2 constant region; also called chimeric antibody 219
B4: 201 hIgG2 (antibody, V domains shown)
VH: EVQLVESGGGLVKPGGSLKLSCAASGFTFSDYGMHWVRQAPEKGLEWVAYISSGSSIMYYADTVKGRFTISRDNAKNTLFLQMASLRSEDTAMYYCARDLYYDHVLDYWGQGTTLTVSS
VL: DIQMTQSPSSLSASLGERVSLTCRASQEIRGYLIWLQQKPGGTIKRLIYAASTLDSGVPKRFSGSRSGSDYSLTISSLESEDFADYYCLQYTSYPRTFGGGTKLEIKR
notes: Chimeric antibody: mouse Fv fused to the human IgG2 constant region, expressed in 293F cells; also called chimeric antibody 201

Key:
[1] = target: T1, huCD39 on the cell surface (293T/17-huCD39 cells) (human, UniProt P49961 1-510); assay: cell-based or functional assay
T1 sequence (looked up): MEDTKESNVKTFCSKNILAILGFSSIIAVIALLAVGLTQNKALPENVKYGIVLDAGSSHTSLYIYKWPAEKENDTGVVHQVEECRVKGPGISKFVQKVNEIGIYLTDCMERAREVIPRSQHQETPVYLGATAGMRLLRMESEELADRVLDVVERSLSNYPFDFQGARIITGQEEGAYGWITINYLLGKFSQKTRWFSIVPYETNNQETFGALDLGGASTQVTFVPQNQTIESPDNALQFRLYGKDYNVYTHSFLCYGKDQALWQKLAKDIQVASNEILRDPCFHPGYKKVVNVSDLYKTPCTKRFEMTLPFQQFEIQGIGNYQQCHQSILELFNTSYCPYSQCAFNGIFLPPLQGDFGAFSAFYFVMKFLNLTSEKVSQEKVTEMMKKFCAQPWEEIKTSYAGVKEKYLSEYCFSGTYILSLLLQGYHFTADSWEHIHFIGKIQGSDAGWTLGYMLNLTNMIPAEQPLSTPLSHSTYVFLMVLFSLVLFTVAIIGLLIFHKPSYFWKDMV

[2] = target: T2, cyno CD39 on the cell surface (293T/17-cyno CD39 cells) (cyno, UniProt P49961 7-510 (human entry)); assay: cell-based or functional assay
T2 chain: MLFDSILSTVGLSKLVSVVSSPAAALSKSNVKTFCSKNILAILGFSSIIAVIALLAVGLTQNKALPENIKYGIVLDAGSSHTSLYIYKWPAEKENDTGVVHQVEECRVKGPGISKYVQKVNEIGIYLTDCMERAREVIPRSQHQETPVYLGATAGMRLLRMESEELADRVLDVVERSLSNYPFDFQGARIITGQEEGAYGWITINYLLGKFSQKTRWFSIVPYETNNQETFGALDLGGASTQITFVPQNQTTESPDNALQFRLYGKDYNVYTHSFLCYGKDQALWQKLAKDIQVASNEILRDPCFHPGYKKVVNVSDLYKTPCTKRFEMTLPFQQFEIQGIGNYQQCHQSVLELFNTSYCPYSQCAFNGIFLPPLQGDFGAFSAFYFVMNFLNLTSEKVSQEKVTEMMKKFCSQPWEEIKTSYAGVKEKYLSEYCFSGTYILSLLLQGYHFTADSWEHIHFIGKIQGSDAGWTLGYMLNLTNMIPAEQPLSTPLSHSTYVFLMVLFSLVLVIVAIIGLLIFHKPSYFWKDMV

[3] = target: T3, huCD39 recombinant protein (human, UniProt P49961 38-478); assay: indirect ELISA, huCD39 recombinant protein coated at 1 ug/mL
T3 construct: the entry is the extracellular domain and ends in a histidine tag; also called soluble huCD39 protein; human CD39 extracellular domain recombinant protein
T3 sequence: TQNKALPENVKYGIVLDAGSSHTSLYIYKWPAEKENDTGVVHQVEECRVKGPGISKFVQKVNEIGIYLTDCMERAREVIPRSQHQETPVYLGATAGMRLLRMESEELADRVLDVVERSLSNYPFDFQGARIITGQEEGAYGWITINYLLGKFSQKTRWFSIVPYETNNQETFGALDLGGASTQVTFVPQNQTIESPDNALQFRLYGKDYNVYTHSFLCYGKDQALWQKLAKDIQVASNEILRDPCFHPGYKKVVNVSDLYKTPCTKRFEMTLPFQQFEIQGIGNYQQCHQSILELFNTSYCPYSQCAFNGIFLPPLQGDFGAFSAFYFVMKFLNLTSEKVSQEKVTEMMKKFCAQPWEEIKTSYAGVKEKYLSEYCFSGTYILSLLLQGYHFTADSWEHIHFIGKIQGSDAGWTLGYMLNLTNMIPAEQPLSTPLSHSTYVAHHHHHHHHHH
Description: The Fv region of the four mouse-derived antibodies obtained in Example 1 was fused with the human IgG2 Fc region and constructed into the pcDNA3.1 vector. Then transfected 293F cells to express the antibody proteins, and the antibodies were purified by ProteinA affinity chromatography. […] The next day, the plates were washed 5 times with PBS buffer and blocked with 200 μL/well of 2% skimmed milk powder for 1 h. A certain dose range of chimeric CD39 antibody was incubated for 1 h at room temperature; then washed 5 times with PBST washing buffer (PBS, 0.05% Tween 20). 100 μL of HRP-labeled secondary antibody was added to each well and the plates were incubated for 30 min at room temperature. The plates were washed 5 times again and TMB (Life Technologies) was added for color development for 5 to 10 min. At last, 1N HCl was added to terminate the reaction, and the OD value was measured at 450 nm. GraphPad Prism software was used to generate data plots and the affinity data was counted (FIG. 1).

[4] = target: T1, huCD39 on the cell surface …; assay: flow cytometry on 293T/17-huCD39 cells
Description: (§1) Flow cytometry assay: recombinant host cell line 293T/17-huCD39 cells expressing huCD39 and recombinant host cell line 293T/17-cyno CD39 cells expressing cyno CD39 were used to evaluate the binding ability of the chimeric antibody to the natural CD39 protein on the cell surface. The recombinant cells were resuspended in PBS buffer, and 2×10⁶ cells were added to a 96-well U-plate. The chimeric antibody in a certain gradient dilution range incubated for 1h at 4° C. in a refrigerator or on ice, centrifuged at 1500 rpm for 3 min at 4° C., washed three times with PBS buffer, and then incubated for 30 min at 4° C. in the refrigerator or on ice with diluted Alexa Fluor 488-labeled goat anti-human polyclonal antibody (pAb): Goat anti-Human IgG (H+L) Cross-Adsorbed Secondary Antibody, Alexa Fluor 488 (thermo). Finally the cells were washed three times with PBS as described above and analyzed in MACSQuant flow cytometry. GraphPad Prism software was used to generate data plots and count affinity data (FIG. 2). The results are shown in Table 2, and the EC₅₀ values of each chimeric antibody of 293T/17-huCD39 and 293T/17-cyno CD39 was at the level of 10⁻⁹M.

[5] = target: T2, cyno CD39 on the cell surface …; assay: flow cytometry on 293T/17-cyno CD39 cells
Description: as §1

Row | Blocking of ATPase activity on cell surface (293T/17-huCD39, CellTiter Glo): EC50 [1] | Blocking of ATPase activity on cell surface (293T/17-huCD39, CellTiter Glo): Top [1] | Blocking of ATPase activity on cell surface (293T/17-cyno CD39, CellTiter Glo): Bottom [2] | Blocking of ATPase activity on cell surface (293T/17-cyno CD39, CellTiter Glo): EC50 [2] | Blocking of ATPase activity on cell surface (293T/17-cyno CD39, CellTiter Glo): Top [2] | Bottom [3] | EC50 [3] | Top [3] | Bottom [4] | EC50 [4] | Top [4] | Bottom [5] | EC50 [5] | Top [5] | Blocking of ATPase activity on cell surface (293T/17-huCD39, CellTiter Glo): Bottom [1] | Binder
1 | 0.011 nM | 1.03e+06 | 55600 | 0.024 nM | 275000 | 0.06 OD450 | 2.43 nM | 1.43 OD450 | 2.17 | 5.92 nM | 151 | 1.81 | 11 nM | 191 | – | B1
2 | 0.008 nM | 1.19e+06 | 42200 | 0.029 nM | 283000 | 0.07 OD450 | 4.8 nM | 1.39 OD450 | 5.8 | 3.8 nM | 116 | 3 | 9.49 nM | 160 | 147000 | B2
3 | 0.01 nM | 800000 | 44500 | 0.024 nM | 303000 | 0.052 OD450 | 1.69 nM | 1.33 OD450 | 3.81 | 4.51 nM | 156 | 3.33 | 8.16 nM | 214 | 172000 | B3
4 | 0.004 nM | 871000 | 42300 | 0.014 nM | 232000 | 0.046 OD450 | 1.4 nM | 1.64 OD450 | -6.24 | 6.56 nM | 189 | 3.23 | 8.69 nM | 209 | 119000 | B4
